Test [1] has as its target human EWI2 wild-type with palmitate-free cytoplasmic cysteines (after hydroxylamine or 2BP) (human) (UniProt Q969P0). Put plainly: cross-linking.
Test [2] has the same target. Nature of the test: cross-linking. The source holds these as a separate data set.

Where two headings read alike, the source gives them in different places.

As a reminder, the stoichiometry N is the number of molecules, sites or subunits per partner or assembly.

Turning to “human EWI2 wild-type with palmitate-free cytoplasmic cysteines (after hydroxylamine or 2BP) (from UniProt Q969P0 28-613) (natural protein)”, in test [1], the percent of EWI2 molecules dimerized amounted to 11% and the stoichiometry N is 2. In test [2], this substance displayed a percent of EWI2 molecules dimerized of 78% and a stoichiometry N of 2.

The values are drawn from PMC4141501.
